Reference: paper PMC8125234, “Cardiolipin Stabilizes and Increases Catalytic Efficiency of Carnitine Palmitoyltransferase II and Its Variants S113L, P50H, and Y479F” (International Journal of Molecular Sciences, 2021)
Where a chain is given by its changes, count along the chain named. In names and notes the source's numbering stands. Several values for one entry are separate records, joined by “and”; a condition that tells them apart may be missing. Identical values can stand only once.

B1: CPT II WT (Homo sapiens) (protein)
chain: SAGSGPGQYLQRSIVPTMHYQDSLPRLPIPKLEDTIRRYLSAQKPLLNDGQFRKTEQFCKSFENGIGKELHEQLVALDKQNKHTSYISGPWFDMYLSARDSVVLNFNPFMAFNPDPKSEYNDQLTRATNMTVSAIRFLKTLRAGLLEPEVFHLNPAKSDTITFKRLIRFVPSSLSWYGAYLVNAYPLDMSQYFRLFNSTRLPKPSRDELFTDDKARHLLVLRKGNFYIFDVLDQDGNIVSPSEIQAHLKYILSDSSPAPEFPLAYLTSENRDIWAELRQKLMSSGNEESLRKVDSAVFCLCLDDFPIKDLVHLSHNMLHGDGTNRWFDKSFNLIIAKDGSTAVHFEHSWGDGVAVLRFFNEVFKDSTQTPAVTPQSQPATTDSTVTVQKLNFELTDALKTGITAAKEKFDATMKTLTIDCVQFQRGGKEFLKKQKLSPDAVAQLAFQMAFLRQYGQTVATYESCSTAAFKHGRTETIRPASVYTKRCSEAFVREPSRHSAGELQQMMVECSKYHGQLTKEAAMGQGFDRHLFALRHLAAAKGIILPELYLDPAYGQINHNVLSTSTLSSPAVNLGGFAPVVSDGFGVGYAVHDNWIGCNVSSYPGRNAREFLQCVEKALEDMFDALEGKSIKS
notes: made in house; host or cells: Escherichia coli BL21Gold DE
B2: CPT II variant S113L (Homo sapiens; S113L) (protein)
chain: B1 chain with S88L
notes: as for B1
B3: CPT II variant Y479F (Homo sapiens; Y479F) (protein)
chain: B1 chain with Y454F
notes: as for B1

What was measured:
[1] = Onset of aggregation by scattered light back reflection during heating ramp; format: physicochemical; conditions: assay buffer; heating ramp 15 °C to 80 °C
Description: Supplementary materials can be found at https://www.mdpi.com/article/10.3390/ijms22094831/s1, Figure S1: Scattered light back reflection as measure for aggregation during the heating ramp from 15 °C to 80 °C of CPT II WT (black) and the variants P50H (red), S113L (blue) and Y479F (green) in assay buffer (magenta). The light scattering data were obtained simultaneously with nanoDSF data using the back reflection technology in a Prometheus NT.48 device. The unfolding of proteins leads to display of hydrophobic regions of the protein on the surface, which is followed by hydrophobic interaction of the protein molecules resulting in aggregation events. These aggregates are then detected via light scattering. […] The data allow the detection of onset of aggregation (Tagg) which differs clearly among the variants. The Tagg for WT is 38 °C, Y479F is 37 °C, S113L is 35 °C and P50H is 32 °C. […] Figure S2: The first derivatives of the transition curves of WT and the variants resulting from the ratio 350/330 nm were plotted against the temperature. The black, red, blue and green solid lines show the curves of WT and variants P50H, S113L and Y479F measured in assay buffer, respectively. The black, red, blue and green dashed lines show the maxima of the values of the first derivatives of the ratio 350 nm/330 nm of WT and variants P50H, S113L and Y479F, respectively. Figure S3: The effect of amino acid exchange in absence and presence of n-octyl-β-d-glucopyranoside (β-OG) on the stability of CPT II (1 mg/mL) assessed by nanoDSF. The TM of WT (37 °C) in buffer was used as reference value (ΔTM = 0 °C) to determine the ΔTM for the variants and the ΔTM for WT and variants in presence of β- OG. Error bars are SD derived from three independent experiments. Table S1. Comparison of the mean values of the half-lives (t1/2) of CPT II WT and the variants at 30 °C with the half-lives at 37, 40 or 42 °C. The differences of the half-lives for each CPT II enzyme between 37 and 40 or 42 °C as well as 40 and 42 °C are not significant. Number of experiments for each variant (n ≥ 3). Table S2. Comparison of the mean values of the half-lives (t1/2) between CPT II WT and the variants Y479F, S113L and P50H at 30, 37, 40 or 42 °C. n ≥ 3. Table S3. […] Comparison of the ∆TM-values of CPT II WT and the variants Y479F, S113L and P50H in buffer or in presence of 0.25 mM cardiolipin or 1% n-octyl-β-d-glucopyranoside (β-OG) assessed by nanoDSF (n ≥ 3). […] Comparison of the transition temperatures (TM) of WT and the variants Y479F, S113L and P50H in buffer with of 0.25 mM cardiolipin or 1% n-octyl-β-d-glucopyranoside (β-OG) assessed by nanoDSF (n ≥ 3). […]

[2] = substrate: C[N+](C)(C)C[C@H](O)CC(=O)[O-]; test: Determination of the kinetic parameters kcat and KM; format: biochemical, human; conditions: L-carnitine varied, absence of CL, 25 °C
Description: Before activity measurements, the storage buffer of the enzymes was replaced with assay buffer (50 mM KH2PO4, 120 mM KCl, 1 mM EDTA-Na4) using vivaspin turbo 4 tubes (Satorius Stedim biotech GmbH, Göttingen, Germany) at 4 °C. The pH of assay buffer was adjusted with KOH to 7.4. The storage buffer was diluted at least 1:500 in assay buffer. In addition, before each experimental set up, the protein samples were centrifuged at 16,000× g for 5 min at 4 °C to remove any micro-aggregates. After that, the protein concentration was determined using bicinchoninic acid (BCA) protein assay kit (Thermo Fisher Scientific GmbH, Berlin, Germany). The enzyme activity of recombinant CPT II was performed following Rufer et al. with modifications described elsewhere. […] After pre-conditioning the mixture to 25 °C for 2 min, the reaction was started by adding 15 nM of recombinant enzyme. The reverse reaction of CPT II was detected with the enzyme activity assay. CPT II catalyzed the transfer of fatty acid residue from Pal-CoA to L-carnitine with release of CoA and Pal-carnitine. The released CoA was then detected by the reaction of the free thiol group with DTNB, forming 5-mercapto-(2-nitrobenzoic acid). This compound has a molar extinction coefficient of 13,600 M^−1 cm^−1 at a wavelength of 410 nm, and its formation was followed spectroscopically. […] The slope of the progress curve was used to determine the reaction velocity.
It is assumed that the reaction catalyzed by CPT II represents a ping-pong mechanism or compulsory order ternary-complex mechanism.
The kinetic parameters were determined by evaluating the obtained v/S characteristic according to the Michaelis–Menten Equation (1). The […] kcat was calculated using Equation (2):(1) v=Vmax∗[S]/KM+[S] (2) kcat=Vmax/cenzyme

[3] = nanoDSF thermostability of recombinant CPT II enzymes in assay buffer; format: physicochemical; conditions: for TM in Buffer: assay buffer, 1 mg/mL protein, nanoDSF; for ∆TM in Buffer: reference TM of WT in buffer (ΔTM = 0 °C)
Description: The protein stability was investigated applying nano differential scanning fluorimetry (nanoDSF) using a protein concentration of 1 mg/mL in assay buffer. […] The heating rate has been set to 1 °C per min. A heating ramp from 15 to 95 °C was determined. The nanoDSF data were obtained using a Prometheus NT.48 device. First derivatives were calculated using PR.ThermControl software (NanoTemper Technologies GmbH, Munich, Germany). Experiments were performed at least three times independently as double determination.

Row | Molecule | Onset of aggregation (Tagg) [1] | Km ([2]; other: WT) | kcat ([2]; other: WT) | kcat/Km ([2]; other: WT) | TM in Buffer [3] | ∆TM in Buffer [3] | Km ([2]; other: S113L) | kcat ([2]; other: S113L) | kcat/Km ([2]; other: S113L) | Km ([2]; other: Y479F) | kcat ([2]; other: Y479F) | kcat/Km ([2]; other: Y479F)
1 | B1 | 38 °C | 15.1 ± 3.4 mM | 149 ± 11.1 s⁻¹ | 9800 ± 1600 M⁻¹ s⁻¹ | 36.9 ± 1.0 °C and 37 °C | 0.0 ± 1.0 °C |  |  |  |  |  | 
2 | B2 | 35 °C |  |  |  |  | -3.1 ± 0.7 °C | 15.5 ± 2.3 mM | 144 ± 5 s⁻¹ | 9300 ± 1400 M⁻¹ s⁻¹ |  |  | 
3 | B3 | 37 °C |  |  |  | 36.2 ± 1.2 °C | -0.74 ± 1.2 °C |  |  |  | 17.4 ± 4.4 mM | 140 ± 18.5 s⁻¹ | 8100 ± 1100 M⁻¹ s⁻¹
